Laboratory results published in patent publication US20190147972A1, “BIOMOLECULE DESIGN MODEL AND USES THEREOF” (University of Notre Dame du Lac, priority 2016, published 2019).
Values belong to the substance of their own block, whether it stands above or below them.

How the values were obtained:
[1] = biological target: MART126(27L)-35 pG6-Sarc/HLA-A2 (UniProt Q16655); assay: SPR steady state, TCR immobilised, pMHC injected
[2] = biological target: MART126(27L)-35 pE1Q/HLA-A2 (UniProt Q16655); assay: SPR steady state (Biacore 3000), TCR immobilised, pMHC injected; relative to the unsubstituted ELA peptide
[3] = biological target: MART126(27L)-35 pE1A/HLA-A2 (UniProt Q16655); assay: as above
[4] = biological target: MART126(27L)-35 pT9A/HLA-A2 (UniProt Q16655); assay: as above
[5] = biological target: MART126(27L)-35 pE1F/HLA-A2 (UniProt Q16655); assay: as above
[6] = biological target: MART126(27L)-35 pI5E/HLA-A2 (UniProt Q16655); assay: as above
[7] = biological target: MART126(27L)-35 pG6-Sarc/HLA-A2 (UniProt Q16655); assay: as above
[8] = biological target: MART126(27L)-35 pE1D/HLA-A2 (UniProt Q16655); assay: as above
MART126(27L)-35/HLA-A2 = MART126(27L)-35/HLA-A2 (UniProt Q16655); assay: SPR steady state (Biacore 3000), TCR immobilised, pMHC injected; relative to wild type
DMF5 TCR = assay: SPR binding of MART126(27L)-35 peptide variants/HLA-A2 to DMF5 TCR; conditions: ELA peptide substitution vs native peptide, SPR steady state, 25° C.
Method: Briefly, the TCR a and b chains, the HLA-A2 heavy chain, and b2-microglobulin (b2m) were generated in Escherichia coli as inclusion bodies, which were isolated and denatured in 8 M urea. TCR a and b chains were diluted in TCR refolding buffer (50 mM Tris (pH 8), 2 mM EDTA, 2.5 M urea, 9.6 mM cysteamine, 5.5 mM cystamine, 0.2 mM PMSF) at a 1:1 ratio. HLA-A2 and b2m were diluted in MHC refolding buffer (100 mM Tris (pH 8), 2 mM EDTA, 400 mM L-arginine, 6.3 mM cysteamine, 3.7 mM cystamine, 0.2 mM PMSF) at a 1:1 ratio in the presence of excess peptide. TCR and pMHC complexes were incubated for 24 h at 4° C. Afterward, complexes were desalted by dialysis at 4° C. and room temperature respectively, then purified by anion exchange followed by size-exclusion chromatography. Refolded protein absorptions at 280 nm were measured spectroscopically and concentrations determined with appropriate extinction coefficients. Mutations in TCR a and b chains were generated by whole-plasmid mutagenesis and confirmed by sequencing. Peptides were synthesized and purified commercially.
Surface plasmon resonance: Surface plasmon resonance experiments were performed with a Biacore 3000 instrument using CMS sensor chips as previously described^15. In all studies, TCR was immobilized to the sensor chip via standard amine coupling and pMHC complex was injected as analyte. Studies were performed at 25° C. in 20 mM HEPES (pH 7.4), 150 mM NaCl, 0.005% Nonidet P-20. All studies were steady-state experiments measuring RU vs. concentration of injected analyte, and were performed with TCRs coupled onto the sensor chip at 400-2000 response units. Injected pMHC spanned a concentration range of 0.1-150 μM at flow rates of 5 μl/min. Data were processed with BioEvaluation 4.1 and fit using a 1:1 binding model utilizing MATLAB 2015b.
Next, eight MART126(27L)-35 peptide variants with a broad range of complex scores were selected for experimental testing with DMF5. A peptide was also examined with a non-standard sarcosine (N-methyl glycine) substituted for Gly6 of the peptide to help test the implications of treating structured water explicitly in the DMF5 interface as discussed above and shown in FIG. 5.

Substance: DMF5 TCR (wild type, soluble)
fold affinity enhancement over the unsubstituted peptide [1]: 3 fold
ΔΔG° [2]: 1 kcal/mol
ΔΔG° [3]: 0.06 kcal/mol
ΔΔG° [4]: 1.6 kcal/mol
ΔΔG° [5]: 2.26 kcal/mol
ΔΔG° [6]: 3.07 kcal/mol
ΔΔG° [7]: -0.58 kcal/mol
ΔΔG° [8]: 1.3 kcal/mol

Substance: pE1F: MART126(27L)-35 (ELA) peptide with E1F substitution, presented by HLA-A2 (FLAGIGILTV; MART-1 26-35 peptide; UniProt Q16655 26-35, looked up, variant A27L E26F)
ΔΔG° (DMF5 TCR): 2.26 kcal/mol

Substance: pI5E: MART126(27L)-35 (ELA) peptide with I5E substitution, presented by HLA-A2 (ELAGEGILTV; MART-1 26-35 peptide; UniProt Q16655 26-35, looked up, variant A27L I30E)
ΔΔG° (DMF5 TCR): 3.07 kcal/mol

The remaining lines, values ahead:

ΔΔG° (MART126(27L)-35/HLA-A2): 0.33 kcal/mol
Substance: DMF5 TCR T54αI

ΔΔG° (DMF5 TCR): 1.0 kcal/mol
Substance: PE1Q: MART126(27L)-35 (ELA) peptide with E1Q substitution, presented by HLA-A2 (QLAGIGILTV; MART-1 26-35 peptide; UniProt Q16655 26-35, looked up, variant A27L E26Q)

ΔΔG° (DMF5 TCR): 1.3 kcal/mol
Substance: pE1D: MART126(27L)-35 (ELA) peptide with E1D substitution, presented by HLA-A2 (DLAGIGILTV; MART-1 26-35 peptide; UniProt Q16655 26-35, looked up, variant A27L E26D)

ΔΔG° (DMF5 TCR): >3 kcal/mol
Substance: pT9W: MART126(27L)-35 (ELA) peptide with T9W substitution, presented by HLA-A2 (ELAGIGILWV; MART-1 26-35 peptide; UniProt Q16655 26-35, looked up, variant A27L T34W)
